Measured values from patent publication US20220119534A1 (DRAGONFLY THERAPEUTICS, published 2022).
Where a chain is given by its changes, count along the chain named. Names and notes keep the numbering of the source. Values joined by “and” are separate entries in the source; they are usually repeats but may differ in a detail not shown here. Equal entries are not always repeated.

How the values were obtained:
mFc-cNKG2D = target: T1, mFc-cNKG2D (cynomolgus monkey, UniProt P61252 73-216); assay: SPR Biacore 37 C; mFc-tagged cyno NKG2D dimer, TriNKET as analyte; 1:1 kinetic fit; average of 4
T1 construct: extracellular domain; Made in house (Dragonfly Tx); also called recombinant cyno NKG2D extracellular domain (ECD); mFc-tagged cyno NKG2D dimer; not shown: mouse Fc tag
T1 sequence (looked up): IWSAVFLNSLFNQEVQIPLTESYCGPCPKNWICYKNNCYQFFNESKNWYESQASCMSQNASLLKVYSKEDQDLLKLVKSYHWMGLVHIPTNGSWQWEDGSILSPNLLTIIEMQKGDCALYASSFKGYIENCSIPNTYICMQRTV

mFc-hNKG2D = target: T2, mFc-hNKG2D (human, UniProt P26718 73-216); assay: SPR Biacore 8K 37 C; mFc-hNKG2D captured on anti-mFc chip, TriNKET as analyte; steady state fit; un-oxidized control
T2 construct: extracellular domain; Made in house (Dragonfly Tx); the order of tag and ECD follows the name mFc-hNKG2D; also called mFc-tagged human NKG2D; not shown: mouse Fc tag
T2 sequence (looked up): T1 sequence (looked up) with N43D, I133T

Human CLEC12A-His = target: T3, Human CLEC12A-His (human, UniProt Q5QGZ9 65-265); assay: SPR Biacore 8K 37 C; TriNKET captured on anti-hFc chip, hCLEC12A-His as analyte; 1:1 fit; after low pH hold (pH 3.3, 1.5 h), n=4
T3 construct: Recombinant soluble protein made in house (Dragonfly Tx); The hCLEC12A spot of the HuProt array is written under this molecule as well; also called hCLEC12A-His; hCLEC12A; not shown: His tag
T3 sequence: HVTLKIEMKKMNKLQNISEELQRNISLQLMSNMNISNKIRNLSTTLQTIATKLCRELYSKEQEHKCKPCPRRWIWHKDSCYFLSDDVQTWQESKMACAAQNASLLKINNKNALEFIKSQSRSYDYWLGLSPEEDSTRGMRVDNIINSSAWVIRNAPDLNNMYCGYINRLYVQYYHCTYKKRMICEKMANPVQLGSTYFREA

[1] = target: T4, Human CLEC12A-His (recombinant, K244 WT) (human, UniProt Q5QGZ9 65-265); assay: SPR 37C, AB0089 captured on anti-hFc, two-state fit (ka1)
T4 construct: Made in house (Dragonfly Tx); also called hCLEC12A; hCLEC12A-His; not shown: His tag
T4 sequence: T3 sequence

[2] = target: T5, Human CLEC12A expressed on cells (Ba/F3-hCLEC12A, PL21, HL60) (human, UniProt Q5QGZ9 1-265); assay: cell-based or functional assay
T5 sequence: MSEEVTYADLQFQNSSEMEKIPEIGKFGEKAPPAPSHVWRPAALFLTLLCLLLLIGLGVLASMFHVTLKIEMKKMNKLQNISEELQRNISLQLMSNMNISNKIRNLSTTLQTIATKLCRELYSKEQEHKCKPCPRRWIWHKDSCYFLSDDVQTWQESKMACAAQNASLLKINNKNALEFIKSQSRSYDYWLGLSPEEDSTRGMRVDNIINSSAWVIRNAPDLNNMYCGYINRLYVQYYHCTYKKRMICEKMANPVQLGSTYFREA

[3] = target: T6, De-glycosylated human CLEC12A (human, UniProt Q5QGZ9 65-265, treated with PNGaseF (N-linked glycans removed)); assay: SPR, two-state fit (kd1)
T6 construct: Same recombinant antigen as m2 after PNGaseF; also called De-glycosylated CLEC12A
T6 sequence: T3 sequence

[4] = target: T7, De-sialylated human CLEC12A (human, UniProt Q5QGZ9 65-265, treated with neuraminidase (terminal sialic acids removed)); assay: SPR, two-state fit (kd1)
T7 construct: Same recombinant antigen as m2 after neuraminidase; also called De-sialylated CLEC12A
T7 sequence: T3 sequence

[5] = target: T5, Human CLEC12A expressed on cells …; assay: cell-based or functional assay; remark: listed apart in the source
[6] = target: T5, Human CLEC12A expressed on cells …; assay: cell-based or functional assay; remark: listed apart in the source
[7] = target: T8, mFc-hNKG2D (recombinant mFc-tagged human NKG2D dimer) (human, UniProt P26718 73-216); assay: SPR; after pH 5.0, 40C, 2 wks (n = 2)
T8 construct: extracellular domain; Made in house; not shown: mouse Fc tag
T8 sequence (looked up): T1 sequence (looked up) with N43D, I133T

[8] = target: T4, Human CLEC12A-His (recombinant, K244 WT); assay: SPR, untreated CLEC12A, two-state fit (ka1)
[9] = target: T9, human CLEC12A on cells (HL60, PL21, Ba/F3-hCLEC12A) (human, UniProt Q5QGZ9 1-265); assay: flow cytometry, HL60 cells
T9 construct: Endogenous on the AML lines HL60 and PL21; brought into mouse Ba/F3 cells by retroviral transduction; The cell line stands under assay; also called CLL-1
T9 sequence: T5 sequence

[10] = target: T9, human CLEC12A on cells (HL60, PL21, …); assay: flow cytometry, HL-60 cells
[11] = target: T10, recombinant human CLEC12A-His (human, UniProt Q5QGZ9 65-265); assay: SPR 37C, average
T10 construct: also called hCLEC12A-His; hCLEC12A
T10 sequence: T3 sequence

B1: F3'-1602 TriNKET (bispecific antibody, human IgG1, kappa)
chain: QLQLQESGPGLVKPSETLSLTCTVSGFSLTNYGLHWIRQPPGKCLEWIGVIWSGGKTDYNPSLKSRVTISKDTSKNQFSLKLSSVQAADTAVYYCAKYDYDDSLDYWGQGTLVTVSSGGGGSGGGGSGGGGSGGGGSDIQMTQSPSSLSASVGDRVTITCHASQNINFWLSWYQQKPGKAPKLLIYEASNLHTGVPSRFSGSGSGTRFTLTISSLQPEDIATYYCQQSHSYPLTFGCGTKLEIKGSDKTHTCPPCPAPELLGGPSVFLFPPKPKDTLMISRTPEVTCVVVDVSHEDPEVKFNWYVDGVEVHNAKTKPREEQYNSTYRVVSVLTVLHQDWLNGKEYKCKVSNKALPAPIEKTISKAKGQPREPRVYTLPPCRDELTKNQVSLTCLVKGFYPSDIAVEWESNGQPENNYKTTPPVLVSDGSFTLYSKLTVDKSRWQQGNVFSCSVMHEALHNHYTQKSLSLSPG
heavy: EVQLVESGGGLVKPGGSLRLSCAASGFTFSSYSMNWVRQAPGKGLEWVSSISSSSSYIYYADSVKGRFTISRDNAKNSLYLQMNSLRAEDTAVYYCARGAPIGAAAGWFDPWGQGTLVTVSSASTKGPSVFPLAPSSKSTSGGTAALGCLVKDYFPEPVTVSWNSGALTSGVHTFPAVLQSSGLYSLSSVVTVPSSSLGTQTYICNVNHKPSNTKVDKKVEPKSCDKTHTCPPCPAPELLGGPSVFLFPPKPKDTLMISRTPEVTCVVVDVSHEDPEVKFNWYVDGVEVHNAKTKPREEQYNSTYRVVSVLTVLHQDWLNGKEYKCKVSNKALPAPIEKTISKAKGQPREPQVCTLPPSRDELTENQVSLTCLVKGFYPSDIAVEWESNGQPENNYKTTPPVLDSDGSFFLYSWLTVDKSRWQQGNVFSCSVMHEALHNHYTQKSLSLSPG
light: DIQMTQSPSSVSASVGDRVTITCRASQGISSWLAWYQQKPGKAPKLLIYAASSLQSGVPSRFSGSGSGTDFTLTISSLQPEDFATYYCQQGVSFPRTFGGGTKVEIKRTVAAPSVFIFPPSDEQLKSGTASVVCLLNNFYPREAKVQWKVDNALQSGNSQESVTEQDSKDSTYSLSSTLTLSKADYEKHKVYACEVTHQGLSSPVTKSFNRGEC
notes: Trispecific F3' format: CLEC12A scFv-Fc paired with NKG2D Fab-Fc; Stressed and control samples of the stability studies are the same molecule; also called AB0237
koff (mFc-cNKG2D): 0.141 s⁻¹
kon (mFc-cNKG2D): 168000 M⁻¹ s⁻¹
Kd (mFc-hNKG2D): 759000 pM
Kd (Human CLEC12A-His): 644 pM
kon (Human CLEC12A-His): 715000 M⁻¹ s⁻¹

B2: AB0089 TriNKET (bispecific antibody, human IgG1, kappa)
chain: B1 chain with S53V, K56A, K71V, Y98G, D101G, S103T, R207D, I220F
heavy: B1 heavy
light: B1 light
notes: F3' format heterodimer of three chains; human IgG1 Fc with EW-RVT and Y349C/S354C mutations; also called AB0089 Lot AB0089-002; CLEC12A TriNKET AB0089
kon [1]: 1.1e+07 M⁻¹ s⁻¹ (2×) and 1e+07 M⁻¹ s⁻¹ (2×)
EC50, KHYG1-CD16aV cytotoxicity assay, HL-60 cells; control (AB0089-002) [2]: 40 pM
EC50, KHYG1-CD16aV cytotoxicity assay, HL-60 cells; low pH hold (AB0089-004) [2]: 30 pM
koff [3]: 0.00633 s⁻¹
koff [4]: 0.0329 s⁻¹
EC50, KHYG-1-CD16aV cytotoxicity assay, HL-60 cells; after low pH hold [5]: 0.11 nM
EC50, KHYG-1-CD16aV cytotoxicity assay, HL-60 cells; control sample [5]: 110 pM
EC50, rested NK cells lysis of HL60 cells (mean of four donors) [6]: 90 pM
Kd [7]: 703000 pM
koff [7]: 0.131 s⁻¹
kon [7]: 187000 M⁻¹ s⁻¹
kon [8]: 1.63e+07 M⁻¹ s⁻¹

B3: AB0192 TriNKET (other)
chain: EVQLVESGGGVVQPGGSLRLSCAASGFTFNAFGMHWVRQAPGKCLEWVAFISSGSTSIYYANTVKGRFTISRDNSKNTLYLQMNSLRAEDTAVYYCARDGYPTGGAMDYWGQGTSVTVSSGGGGSGGGGSGGGGSGGGGSDIQMTQSPSSLSASVGDRVTITCKASQDIYNYLSWFQQKPGKAPKPLIYRANILVSGVPSRFSGSGSGQDYTFTISSLQPEDIATYYCLQFDAFPFTFGCGTKLEIKGSDKTHTCPPCPAPELLGGPSVFLFPPKPKDTLMISRTPEVTCVVVDVSHEDPEVKFNWYVDGVEVHNAKTKPREEQYNSTYRVVSVLTVLHQDWLNGKEYKCKVSNKALPAPIEKTISKAKGQPREPRVYTLPPCRDELTKNQVSLTCLVKGFYPSDIAVEWESNGQPENNYKTTPPVLVSDGSFTLYSKLTVDKSRWQQGNVFSCSVMHEALHNHYTQKSLSLSPG
heavy: B1 heavy
light: B1 light
notes: the condition stands under assay; also called AB0192 Lot AB0192-005
EC50 [9]: 610 pM
FOB (fold over background) [9]: 42 fold
EC50 [10]: 600 pM

B4: F3'-1602 TriNKET (other)
chain: B1 chain
heavy: B1 heavy
light: B1 light
notes: CLEC12A scFv-Fc, NKG2D A49MI Fab-Fc, human IgG1 Fc; also called AB0237
Kd [11]: 1200 pM
koff [11]: 0.000933 s⁻¹
kon [11]: 779000 M⁻¹ s⁻¹
